Where a chain is given by its changes, count along the chain named. In names and notes the source's numbering stands. One block for each binder: values may come before it.
How the values were obtained:
[1] = molecular target: T1, wild type human CD47 (Acro Biosystems, cat. no. CD7-H5227) (human, UniProt Q08722 19-139); test: SPR, IgG captured, CD47 in flow; exp 3
T1 construct: Bought protein used as SPR analyte; also called Human CD47 wt; wild-type CD47

Human CD47-C33G [2] = molecular target: T2, Human CD47-C33G (human, UniProt Q08722 19-135); test: SPR, IgG captured, CD47 in flow; exp 3
T2 construct: also called CD47 mutein with C33G mutation

[3] = molecular target: T1, wild type human CD47 (Acro Biosystems, …); test: SPR, IgG captured, CD47 in flow; exp 1
Human CD47-C33G [4] = molecular target: T2, Human CD47-C33G; test: SPR, IgG captured, CD47 in flow; exp 1
[5] = molecular target: T1, wild type human CD47 (Acro Biosystems, …); test: SPR, IgG captured, CD47 in flow; exp 2
Human CD47-C33G [6] = molecular target: T2, Human CD47-C33G; test: SPR, IgG captured, CD47 in flow; exp 2
[7] = molecular target: T3, human CD47 on cells (SHP-77 tumor cells, human red blood cells, CCRF-CEM cells, human CD47 CHO-K1 stable cell … (human, UniProt Q08722 19-323)); test: flow cytometry on human RBCs;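 further: antibody binding measured by flow cytometry as geometric mean fluorescence intensity over a range of antibody concentrations, with EC50 and maximum taken from a sigmoidal dose-response fit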
T3 construct: whole, on cells; also called RBC

[8] = molecular target: T1, wild type human CD47 (Acro Biosystems, …); test: SPR, IgG captured, CD47 in flow; exp 4
Human CD47-C33G [9] = molecular target: T2, Human CD47-C33G; test: SPR, IgG captured, CD47 in flow; exp 4
[10] = molecular target: T3, human CD47 on cells (SHP-77 tumor …); test: flow cytometry on SHP-77 cells
[11] = molecular target: T1, wild type human CD47 (Acro Biosystems, …); test: SPR, IgG captured, CD47 in flow; exp 2; remark: listed apart in the source
Human CD47-C33G [12] = molecular target: T2, Human CD47-C33G; test: SPR, IgG captured, CD47 in flow; exp 2; remark: listed apart in the source
[13] = molecular target: T1, wild type human CD47 (Acro Biosystems, …); test: SPR, IgG captured, CD47 in flow; exp 1; remark: listed apart in the source
Human CD47-C33G [14] = molecular target: T2, Human CD47-C33G; test: SPR, IgG captured, CD47 in flow; exp 1; remark: listed apart in the source
[15] = molecular target: T1, wild type human CD47 (Acro Biosystems, …); test: SPR, IgG captured, CD47 in flow; exp 4; remark: listed apart in the source
Human CD47-C33G [16] = molecular target: T2, Human CD47-C33G; test: SPR, IgG captured, CD47 in flow; exp 4; remark: listed apart in the source
[17] = molecular target: T1, wild type human CD47 (Acro Biosystems, …); test: SPR, IgG captured, CD47 in flow; exp 3; remark: listed apart in the source
Human CD47-C33G [18] = molecular target: T2, Human CD47-C33G; test: SPR, IgG captured, CD47 in flow; exp 3; remark: listed apart in the source

Kd [1]: 18 nM | koff [1]: 0.0084 s⁻¹ | kon [1]: 460000 M⁻¹ s⁻¹ | Kd (Human CD47-C33G [2]): 1300 nM | koff (Human CD47-C33G [2]): 0.084 s⁻¹ | kon (Human CD47-C33G [2]): 64000 M⁻¹ s⁻¹
B1: 108VH5.M17 / 108VL1.M5 (antibody, human IgG4 S228P, kappa, V domains shown)
VH: EVQLVQSGAEVKKPGASVKVSCKASGYTFTHHWMHWVRQAPGQGLEWMGMIDASEGETRYAQKFQGRVTMTRDTSTSTVYMELSSLRSEDTAVYYCARLGRYYFDYWGQGTLVTVSS
VL: EIVLTQSPATLSLSPGERATLSCRASQSVSSYLAWYQQKPGQAPRLLIYGASNRATGIPARFSGSGSGTDFTLTISSLEPEDFAVYYCGESYGHLYTFGGGTKVEIKR
notes: Full-length IgG4 (S228P), kappa; also called VH5.M17 VL1.M5

Kd [3]: 1.3 nM | koff [3]: 0.00096 s⁻¹ | kon [3]: 720000 M⁻¹ s⁻¹ | Kd (Human CD47-C33G [4]): 6.2 nM | koff (Human CD47-C33G [4]): 0.0021 s⁻¹ | kon (Human CD47-C33G [4]): 330000 M⁻¹ s⁻¹
B3: 108VH5.M5 / 108VL1.M5 (antibody, human IgG4 S228P, kappa, V domains shown)
VH: B1 VH with M34I, E55D, G56S, Y60L, A61S, Q65K, G66D
VL: B1 VL
notes: Full-length IgG4 (S228P), kappa; also called VH5.M5 VL1.M5

Kd [3]: 0.2 nM | koff [3]: 0.00032 s⁻¹ | kon [3]: 1.5e+06 M⁻¹ s⁻¹ | Kd (Human CD47-C33G [4]): 0.92 nM | koff (Human CD47-C33G [4]): 0.00068 s⁻¹ | kon (Human CD47-C33G [4]): 740000 M⁻¹ s⁻¹ | Kd [11]: 0.21 nM | koff [11]: 0.00034 s⁻¹ | kon [11]: 1.6e+06 M⁻¹ s⁻¹ | Kd (Human CD47-C33G [12]): 1.3 nM | koff (Human CD47-C33G [12]): 0.00074 s⁻¹ | kon (Human CD47-C33G [12]): 590000 M⁻¹ s⁻¹ | Kd [8]: 0.17 nM | koff [8]: 0.0003 s⁻¹ | kon [8]: 1.8e+06 M⁻¹ s⁻¹ | Kd (Human CD47-C33G [9]): 0.67 nM | koff (Human CD47-C33G [9]): 0.00061 s⁻¹ | kon (Human CD47-C33G [9]): 920000 M⁻¹ s⁻¹ | Kd [5]: 0.19 nM | koff [5]: 0.00032 s⁻¹ | kon [5]: 1.6e+06 M⁻¹ s⁻¹ | Kd (Human CD47-C33G [6]): 1 nM | koff (Human CD47-C33G [6]): 0.00073 s⁻¹ | kon (Human CD47-C33G [6]): 720000 M⁻¹ s⁻¹ | Kd [13]: 0.19 nM | koff [13]: 0.00032 s⁻¹ | kon [13]: 1.6e+06 M⁻¹ s⁻¹ | Kd (Human CD47-C33G [14]): 1 nM | koff (Human CD47-C33G [14]): 0.00073 s⁻¹ | kon (Human CD47-C33G [14]): 720000 M⁻¹ s⁻¹ | Kd [15]: 0.17 nM | koff [15]: 0.0003 s⁻¹ | kon [15]: 1.8e+06 M⁻¹ s⁻¹ | Kd (Human CD47-C33G [16]): 0.67 nM | koff (Human CD47-C33G [16]): 0.00061 s⁻¹ | kon (Human CD47-C33G [16]): 920000 M⁻¹ s⁻¹ | Kd [1]: 0.2 nM | koff [1]: 0.00032 s⁻¹ | kon [1]: 1.6e+06 M⁻¹ s⁻¹ | Kd (Human CD47-C33G [2]): 0.95 nM | koff (Human CD47-C33G [2]): 0.00063 s⁻¹ | kon (Human CD47-C33G [2]): 660000 M⁻¹ s⁻¹ | Kd [17]: 0.2 nM | koff [17]: 0.00032 s⁻¹ | kon [17]: 1.6e+06 M⁻¹ s⁻¹ | Kd (Human CD47-C33G [18]): 0.95 nM | koff (Human CD47-C33G [18]): 0.00063 s⁻¹ | kon (Human CD47-C33G [18]): 660000 M⁻¹ s⁻¹
B7: chimeric antibody 108C10A6 (antibody, V domains shown)
VH: QMQLQQSGPQLVRPGASVKISCKTSGYSFTHHWIHWMKQRPGQGLEWIGMIDPSDSETRLSQKFKDKATLTVDASSSTAYMQLNSPTSEDSALYFCARLGRYYFDYWGQGTTLTVSS
VL: NIVMTQSPRSMSMSVGERVTLSCKASENVGTYISWYQQKPDQSPKLLIYGASNRYTGVPDRFTGSGSGTDFTLTISTVQAEDLADYHCGESYGHLYTFGGGTKLEIK
notes: Chimeric antibody with mouse variable domains; captured through human Fc; also called VH / VL

Further lines, the binder ahead of its results:

B2: 108VH5.M8 / 108VL1.M5 (antibody, human IgG4 S228P, kappa, V domains shown)
VH: B1 VH with T28S, M34I, E55D, G56S, Q65K, G66D
VL: B1 VL
notes: Full-length IgG4 (S228P), kappa; also called VH5.M8 VL1.M5
Kd [3]: 3 nM | koff [3]: 0.0022 s⁻¹ | kon [3]: 720000 M⁻¹ s⁻¹ | Kd (Human CD47-C33G [4]): 15 nM | koff (Human CD47-C33G [4]): 0.0044 s⁻¹ | kon (Human CD47-C33G [4]): 300000 M⁻¹ s⁻¹

B4: 108VH5.M9 / 108VL1.M5 (antibody, human IgG4 S228P, kappa, V domains shown)
VH: B1 VH with T28S, M34I, E55D, G56S, Y60L, A61S
VL: B1 VL
notes: Full-length IgG4 (S228P), kappa; also called VH5.M9 VL1.M5
Kd [3]: 1.9 nM | koff [3]: 0.0014 s⁻¹ | kon [3]: 760000 M⁻¹ s⁻¹ | Kd (Human CD47-C33G [4]): 8.5 nM | koff (Human CD47-C33G [4]): 0.0028 s⁻¹ | kon (Human CD47-C33G [4]): 330000 M⁻¹ s⁻¹

B5: 108VH5.M10 / 108VL1.M5 (antibody, human IgG4 S228P, kappa, V domains shown)
VH: B1 VH with M34I, E55D, G56S
VL: B1 VL
notes: Full-length IgG4 (S228P), kappa; also called VH5.M10 VL1.M5
Kd [5]: 2.8 nM | koff [5]: 0.0019 s⁻¹ | kon [5]: 660000 M⁻¹ s⁻¹ | Kd (Human CD47-C33G [6]): 16 nM | koff (Human CD47-C33G [6]): 0.004 s⁻¹ | kon (Human CD47-C33G [6]): 250000 M⁻¹ s⁻¹

B6: 108VH5.M25 / 108VL1.M5 (antibody, human IgG4 S228P, kappa, V domains shown)
VH: B1 VH with E55D, G56R
VL: B1 VL
notes: Full-length IgG4 (S228P), kappa; also called VH5.M25 VL1.M5
EC50 [7]: 4 nM | Fitted Maximal MFI [7]: 35500 MFI | Kd [8]: 6.2 nM | koff [8]: 0.0028 s⁻¹ | kon [8]: 450000 M⁻¹ s⁻¹ | Kd (Human CD47-C33G [9]): 33 nM | koff (Human CD47-C33G [9]): 0.0063 s⁻¹ | kon (Human CD47-C33G [9]): 190000 M⁻¹ s⁻¹ | EC50 [10]: 7.1 nM | Fitted Maximal MFI [10]: 39600 MFI

From US20260132197A1 (NANJING LEGEND BIOTECH, published 2026)
